Test results as given in patent US7732183B2, “Method for refolding enzymes” (Elan Pharmaceuticals, Inc., priority 2001, dated 2010).
Several values for one entry are separate records, joined by “and”; a condition that tells them apart may be missing. Equal entries are not always repeated.

Key:
Assay type in all cases: biochemical
[1] = system: substrate SEISY↓EVEFRWKK [SEQ ID NO:9] or GLTNIKTEEISEISY↓EVEFRWKK [SEQ ID NO:10]; experiment: BACE activity assay: HPLC with fluorescence detection of peptide substrate cleavage; conditions: for Activity %: relative to recombinant BACE expressed in CHO cells (=100), E. coli enzymes refolded as in Example 4 and purified
Procedure: (§1) Peptide substrates SEISY↓EVEFRWKK [SEQ ID NO: 9] and GLTNIKTEEISEISY↓EVEFRWKK [SEQ ID NO: 10] were synthesized by solid-phase technology (arrows indicating cleavage site). The assay mixture contained in a volume of 200 μl, 0.1 M Sodium acetate, pH 5.0, 0.5-20 nM BACE and 25 μM substrate SEISY↓EVEFRWKK [SEQ ID NO:9] or GLTNIKTEEISEISY↓EVEFRWKK [SEQ ID NO:10]. The reaction mixture was incubated for 2 hours at 37° C.; reactions were stopped with 100 μl of 4% TFA in H2O. A 50 μl portion was injected into an Agilent 1100 Series HPLC equipped with an Alltech Rocket™ column (7 mm i.d.×53 mm length, C18, 3 μm) pre-equilibrated with 88% reagent A (0.1% TFA in water), 12% reagent B (0.1% TFA in acetonitrile). The flow rate over this column was 3 ml per minute. The products (including uncleaved substrate) were eluted from the column with the following linear gradients:
(§2) The Agilent 1100 Series HPLC is equipped with a fluorescence detector that allows detection of the substrate disappearance and EVEFRWKK [SEQ ID NO:29] product formation. Activity was expressed as Fluorescence peak area generated by the liberation of a fluorescent (Tryptophan fluorescence) product upon cleavage of substrate. Fluorescence detection is monitored at 348 nM upon excitation at 280 nm.

[2] = system: SEISY-↓-EVEFRWKK [SEQ ID NO: 9]; experiment: Kinetic comparison of CHO and E. coli BACE (Vmax, kcat, Km); conditions: substrate SEQ ID NO: 9, 1 to 300 μM; pH 5.5, 50 mM NaCl, 37° C., 1 h, enzyme 1 nM
[3] = system: GLTNIKTEEISEISY-↓-EVEFRWKK [SEQ ID NO: 10]; experiment: as above; conditions: substrate SEQ ID NO: 10, 1 to 300 μM; pH 5.5, 50 mM NaCl, 37° C., 1 h, enzyme 1 nM
[4] = biological target: T1, substrate SEISY↓EVEFRWKK [SEQ ID NO:9] or GLTNIKTEEISEISY↓EVEFRWKK [SEQ ID NO:10] (Homo sapiens, UniProt P56817); experiment: BACE activity assay: HPLC with fluorescence detection of peptide substrate cleavage; conditions: relative to CHO BACE, Example 5 optimized refolding method
T1 construct: made in house; control enzyme from CHO cells
Procedure: as §1, §2

[5] = biological target: T2, EIDL-↓-MVLDWHDR [SEQ ID NO: 13] (Homo sapiens, UniProt P56817); experiment: Kinetic comparison of CHO and E. coli BACE (Vmax, kcat, Km); conditions: substrate SEQ ID NO: 13, 1 to 300 μM; pH 5.5, 50 mM NaCl, 37° C., 1 h, enzyme 1 nM
T2 construct: made in house; host or cells: CHO cells, purified from conditioned media

B1: PcDNA3.1Asp2LΔTM(His)6 + HIV Pr: CHO-expressed BACE cleaved with HIV-1 protease, SEQ ID NO:32 (protein, listed as Homo sapiens)
chain: VEMVDNLRGKSGQGYYVEMTVGSPPQTLNILVDTGSSNFAVGAAPHPFLHRYYQRQLSSTYRDLRKGVYVPYTQGKWEGELGTDLVSIPHGPNVTVRANIAAITESDKFFINGSNWEGILGLAYAEIARPDDSLEPFFDSLVKQTHVPNLFSLQLCGAGFPLNQSEVLASVGGSMIIGGIDHSLYTGSLWYTPIRREWYYEVIIVRVEINGQDLKMDCKEYNYDKSIVDSGTTNLRLPKKVFEAAVKSIKAASSTEKFPDGFWLGEQLVCWQAGTTPWNIFPVISLYLMGEVTNQSFRITILPQQYLRPVEDVATSQDDCYKFAISQSSTGTVMGAVIMEGFYVVFDRARKRIGFAVSACHVHDEFRTAAVEGPFVTLDMEDCGYNIPQTDESHHHHHH
modifications: His6 tag; HIV Protease treated BACE Asp2-2L-TM-His6
For B1, the “more enzymatic activity than untreated BACE” value ([1]; BACE expressed in CHO cells, HIV-1 protease treated and purified) was 10-20% and the Activity % [1] was 120%.

B2: pET11a-BACE + HIV Pr: V40 to S432 BACE fragment, SEQ ID NO:31, obtained by HIV-1 protease treatment of pET11a-BACE (protein, listed as Homo sapiens)
chain: VEMVDNLRGKSGQGYYVEMTVGSPPQTLNILVDTGSSNFAVGAAPHPFLHRYYQRQLSSTYRDLRKGVYVPYTQGKWEGELGTDLVSIPHGPNVTVRANIAAITESDKFFINGSNWEGILGLAYAEIARPDDSLEPFFDSLVKQTHVPNLFSLQLCGAGFPLNQSEVLASVGGSMIIGGIDHSLYTGSLWYTPIRREWYYEVIIVRVEINGQDLKMDCKEYNYDKSIVDSGTTNLRLPKKVFEAAVKSIKAASSTEKFPDGFWLGEQLVCWQAGTTPWNIFPVISLYLMGEVTNQSFRITILPQQYLRPVEDVATSQDDCYKFAISQSSTGTVMGAVIMEGFYVVFDRARKRIGFAVSACHVHDEFRTAAVEGPFVTLDMEDCGYNIPQTDES
modifications: BACE V40- S432 fragment
With B2 the “increase in enzyme activity after HIV-1 protease treatment versus untreated enzyme” value ([1]; HIV-1 protease cleavage at F39-V40, then purification) was “about 5 fold”, the Activity % [1] was 248% and the Activity % ([1]; listed as V^40 . . . S^432) was 248% and 222%.

B3: pET11a-BACE: T7 tag-GSM-BACE (A-8 to S432), SEQ ID NO:5, expressed in E. coli and refolded (protein, listed as Homo sapiens)
chain: MASMTGGQQMGRGSMAGVLPAHGTQHGIRLPLRSGLGGAPLGLRLPRETDEEPEEPGRRGSFVEMVDNLRGKSGQGYYVEMTVGSPPQTLNILVDTGSSNFAVGAAPHPFLHRYYQRQLSSTYRDLRKGVYVPYTQGKWEGELGTDLVSIPHGPNVTVRANIAAITESDKFFINGSNWEGILGLAYAEIARPDDSLEPFFDSLVKQTHVPNLFSLQLCGAGFPLNQSEVLASVGGSMIIGGIDHSLYTGSLWYTPIRREWYYEVIIVRVEINGQDLKMDCKEYNYDKSIVDSGTTNLRLPKKVFEAAVKSIKAASSTEKFPDGFWLGEQLVCWQAGTTPWNIFPVISLYLMGEVTNQSFRITILPQQYLRPVEDVATSQDDCYKFAISQSSTGTVMGAVIMEGFYVVFDRARKRIGFAVSACHVHDEFRTAAVEGPFVTLDMEDCGYNIPQTDES
modifications: T7 tag
In the case of B3, the Activity % [1] is reported as 47%, the Activity % ([1]; listed as pET11a BACE) is reported as “about 47%” and the Activity % ([1]; listed as recombinant BACE) is reported as 28%.

B4: pQE70-BACE: (M)R36 to S432 BACE-RS(His)6 lacking prosequence, SEQ ID NO:3, expressed in E. coli and refolded (protein, listed as Homo sapiens)
chain: MRGSFVEMVDNLRGKSGQGYYVEMTVGSPPQTLNILVDTGSSNFAVGAAPHPFLHRYYQRQLSSTYRDLRKGVYVPYTQGKWEGELGTDLVSIPHGPNVTVRANIAAITESDKFFINGSNWEGILGLAYAEIARPDDSLEPFFDSLVKQTHVPNLFSLQLCGAGFPLNQSEVLASVGGSMIIGGIDHSLYTGSLWYTPIRREWYYEVIIVRVEINGQDLKMDCKEYNYDKSIVDSGTTNLRLPKKVFEAAVKSIKAASSTEKFPDGFWLGEQLVCWQAGTTPWNIFPVISLYLMGEVTNQSFRITILPQQYLRPVEDVATSQDDCYKFAISQSSTGTVMGAVIMEGFYVVFDRARKRIGFAVSACHVHDEFRTAAVEGPFVTLDMEDCGYNIPQTDESRSHHHHHH
modifications: His6 tag
Work on B4 yielded a Km [2] of 55.5 µM, a Vmax [2] of 0.345 µmol/min/mg and a kcat [2] of 0.273 s⁻¹. For the same molecule, the Km [3] was 5.4 µM, the Vmax [3] was 0.400 µmol/min/mg and the kcat [3] was 0.317 s⁻¹. The Activity % ([4]; first elution from affinity column) was 171% and the Activity % ([4]; second elution from affinity column) was 125%.

B5: pQE80L-BACE + HIV Pr: V40 to S432 BACE fragment, SEQ ID NO:31, obtained by HIV-1 protease treatment of pQE80L-BACE (protein, listed as Homo sapiens)
chain: VEMVDNLRGKSGQGYYVEMTVGSPPQTLNILVDTGSSNFAVGAAPHPFLHRYYQRQLSSTYRDLRKGVYVPYTQGKWEGELGTDLVSIPHGPNVTVRANIAAITESDKFFINGSNWEGILGLAYAEIARPDDSLEPFFDSLVKQTHVPNLFSLQLCGAGFPLNQSEVLASVGGSMIIGGIDHSLYTGSLWYTPIRREWYYEVIIVRVEINGQDLKMDCKEYNYDKSIVDSGTTNLRLPKKVFEAAVKSIKAASSTEKFPDGFWLGEQLVCWQAGTTPWNIFPVISLYLMGEVTNQSFRITILPQQYLRPVEDVATSQDDCYKFAISQSSTGTVMGAVIMEGFYVVFDRARKRIGFAVSACHVHDEFRTAAVEGPFVTLDMEDCGYNIPQTDES
modifications: BACE V40- S432 fragment
B5 gave an Activity % [1] of 222%.

B6: PcDNA3.1Asp2LΔTM(His)6: Recombinant human BACE lacking transmembrane domain, His6 tag, expressed in CHO cells (control), SEQ ID NO:23 (protein, listed as Homo sapiens)
chain: MAQALPWLLLWMGAGVLPAHGTQHGIRLPLRSGLGGAPLGLRLPRETDEEPEEPGRRGSFVEMVDNLRGKSGQGYYVEMTVGSPPQTLNILVDTGSSNFAVGAAPHPFLHRYYQRQLSSTYRDLRKGVYVPYTQGKWEGELGTDLVSIPHGPNVTVRANIAAITESDKFFINGSNWEGILGLAYAEIARPDDSLEPFFDSLVKQTHVPNLFSLQLCGAGFPLNQSEVLASVGGSMIIGGIDHSLYTGSLWYTPIRREWYYEVIIVRVEINGQDLKMDCKEYNYDKSIVDSGTTNLRLPKKVFEAAVKSIKAASSTEKFPDGFWLGEQLVCWQAGTTPWNIFPVISLYLMGEVTNQSFRITILPQQYLRPVEDVATSQDDCYKFAISQSSTGTVMGAVIMEGFYVVFDRARKRIGFAVSACHVHDEFRTAAVEGPFVTLDMEDCGYNIPQTDESHHHHHH
modifications: His6 tag; Human soluble BACE with 6-His tag
Molecule B6 has a Km [2] of 52 µM, a Vmax [2] of 0.294 µmol/min/mg and a kcat [2] of 0.233 s⁻¹. For the same molecule, the Km [3] was 4.9 µM, the Vmax [3] was 0.435 µmol/min/mg and the kcat [3] was 0.345 s⁻¹. It also gave a Km [5] of 12 µM, a Vmax [5] of 0.0196 µmol/min/mg and a kcat [5] of 0.0155 s⁻¹. The Activity % [1] was 100%.
